Laboratory results reported in patent publication US6994856 (Genentech, dated 2006).
One block for each molecule: values may come before it. gD epitope tag = herpes gD epitope tag left after the gD signal sequence; Fc (human IgG1) = Fc portion of human IgG1

Columns and labels:
[1] = target: T1, ErbB4.Fc (UniProt Q15303 26-651, limits assumed); experiment: displacement of 125I-NRG3^EGF.Fc from immobilized ErbB4.Fc by NRG1^EGF
T1 construct: also called soluble form of ErbB4 receptor; immobilized soluble ErbB4 receptor; not shown: Fc part, not described; the protein was captured on the plate by goat anti-human antibody
T1 sequence (looked up): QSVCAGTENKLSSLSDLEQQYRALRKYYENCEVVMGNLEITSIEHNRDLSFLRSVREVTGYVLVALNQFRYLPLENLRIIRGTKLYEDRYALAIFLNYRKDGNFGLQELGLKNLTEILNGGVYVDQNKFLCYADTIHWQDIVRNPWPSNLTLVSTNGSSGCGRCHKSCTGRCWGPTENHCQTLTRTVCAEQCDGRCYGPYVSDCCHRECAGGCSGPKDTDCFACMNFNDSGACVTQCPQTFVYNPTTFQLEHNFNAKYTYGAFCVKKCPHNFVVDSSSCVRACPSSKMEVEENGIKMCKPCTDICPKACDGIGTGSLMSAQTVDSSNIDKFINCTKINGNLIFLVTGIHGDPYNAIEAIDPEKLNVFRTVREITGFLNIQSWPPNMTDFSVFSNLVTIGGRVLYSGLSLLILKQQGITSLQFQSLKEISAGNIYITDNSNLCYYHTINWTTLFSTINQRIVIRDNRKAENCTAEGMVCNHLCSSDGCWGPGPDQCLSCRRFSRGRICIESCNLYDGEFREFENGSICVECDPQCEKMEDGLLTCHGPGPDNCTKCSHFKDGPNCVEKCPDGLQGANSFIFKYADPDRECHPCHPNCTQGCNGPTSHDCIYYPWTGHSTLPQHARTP

[2] = target: T1, ErbB4.Fc; experiment: displacement of 125I-NRG3^EGF.Fc from immobilized ErbB4.Fc by unlabeled NRG3^EGF.Fc
Protocol: The displacement binding assays were performed in Maxisorp C 96-wells (Nunc, Naperville, Ill.). Goat anti-human antibody (Boehringer Mannheim, Germany) was coated on the plate at a concentration of 0.2 µg/well in 100 µl of 50 mM sodium carbonate buffer (pH 9.6) at 4° C., overnight. The plate was blocked by 1% BSA in TBST buffer (25 mM Tris, pH 7.5, 150 mM NaCl, 0.02% Tween 20) for 30 min at room temperature (RT). A soluble form of ErbB4 receptor was added at 15 ng/well in 1% BSA/TBST and incubated for 1.5 hr at RT. To prevent radiolabeled protein from interacting with residual goat anti-human antibodies, 1 µM of a humanized monoclonal antibody (rhuMAB HER2; Carter, P. et al. (1992) *Proc. Natl. Acad. Sci. USA* 89:4285–9) was added to the plate for 20 min and was included in the subsequent binding reaction.
The unbound material was washed by TBST extensively, and the bound radioactivity was counted on a Beckman IsoData gamma-counter (Smith-Kline Beckman, Pa.). Data was analyzed using a nonlinear regression computer program.

[3] = target: T2, human ErbB3 receptor on cells (human, UniProt P21860 20-1342); experiment: FACS on K562^erbB3 cells
T2 construct: whole, on cells; also called HER3; K562^erbB3 cells
Protocol: (§1) In FIGS. 6A–6D, parental K562 cells (FIG. 6A) or K562 cells expressing either ErbB2 receptor (K562^erbB2 cells; FIG. 6B), ErbB3 receptor (K562^erbB3 cells; FIG. 6C) or ErbB4 receptor (K562^erbB4 cells; FIG. 6D) were examined for the expression of corresponding receptors. Cells were incubated with anti-ErbB2 receptor, anti-ErbB3 receptor or anti-ErbB4 receptor antibodies as indicated before PE-conjugated secondary antibody was added. "LOG PE" represents relative fluorescent intensity and "Counts" represents cell numbers. In FIGS. 6E–6H, NRG3^EGF.Fc is shown by FACS analysis to bind to ErbB4 receptor expressing cells. Parental K562 cells (FIG. 6E), K562^erbB2 cells (FIG. 6F), K562^erbB3 cells (FIG. 6G) and K562^erbB4 cells (FIG. 6H) were incubated with or without NRG3^EGF.Fc (containing gD tag) for 1 hour, followed by anti-gD-tag primary antibody and PE-conjugated secondary antibody.
(§2) C. FACS Analysis. For each binding reaction, 5×10^5 stably transfected K562 cells were suspended in PBS/2% BSA at 4° C. for 30 min followed by incubation with 5 µg of isolated, purified NRG3^EGF.Fc (MW 90 kDa) in a volume of 0.25 ml on ice for 60 min. 1 µg of primary antibody (anti-gD or anti-ErbB receptor) and secondary PE-conjugated (CALTAG, Calif., goat anti-mouse, 1:100 dilution) antibodies were added sequentially with 30–60 min incubation time and extensive washes before each addition. […]

[4] = target: T3, human ErbB2 receptor on cells (human, UniProt P04626 23-1255); experiment: FACS on K562^erbB2 cells
T3 construct: whole, on cells; also called HER2; K562^erbB2 cells
Protocol: as §1, §2

T2 sequence (P21860 20-1342): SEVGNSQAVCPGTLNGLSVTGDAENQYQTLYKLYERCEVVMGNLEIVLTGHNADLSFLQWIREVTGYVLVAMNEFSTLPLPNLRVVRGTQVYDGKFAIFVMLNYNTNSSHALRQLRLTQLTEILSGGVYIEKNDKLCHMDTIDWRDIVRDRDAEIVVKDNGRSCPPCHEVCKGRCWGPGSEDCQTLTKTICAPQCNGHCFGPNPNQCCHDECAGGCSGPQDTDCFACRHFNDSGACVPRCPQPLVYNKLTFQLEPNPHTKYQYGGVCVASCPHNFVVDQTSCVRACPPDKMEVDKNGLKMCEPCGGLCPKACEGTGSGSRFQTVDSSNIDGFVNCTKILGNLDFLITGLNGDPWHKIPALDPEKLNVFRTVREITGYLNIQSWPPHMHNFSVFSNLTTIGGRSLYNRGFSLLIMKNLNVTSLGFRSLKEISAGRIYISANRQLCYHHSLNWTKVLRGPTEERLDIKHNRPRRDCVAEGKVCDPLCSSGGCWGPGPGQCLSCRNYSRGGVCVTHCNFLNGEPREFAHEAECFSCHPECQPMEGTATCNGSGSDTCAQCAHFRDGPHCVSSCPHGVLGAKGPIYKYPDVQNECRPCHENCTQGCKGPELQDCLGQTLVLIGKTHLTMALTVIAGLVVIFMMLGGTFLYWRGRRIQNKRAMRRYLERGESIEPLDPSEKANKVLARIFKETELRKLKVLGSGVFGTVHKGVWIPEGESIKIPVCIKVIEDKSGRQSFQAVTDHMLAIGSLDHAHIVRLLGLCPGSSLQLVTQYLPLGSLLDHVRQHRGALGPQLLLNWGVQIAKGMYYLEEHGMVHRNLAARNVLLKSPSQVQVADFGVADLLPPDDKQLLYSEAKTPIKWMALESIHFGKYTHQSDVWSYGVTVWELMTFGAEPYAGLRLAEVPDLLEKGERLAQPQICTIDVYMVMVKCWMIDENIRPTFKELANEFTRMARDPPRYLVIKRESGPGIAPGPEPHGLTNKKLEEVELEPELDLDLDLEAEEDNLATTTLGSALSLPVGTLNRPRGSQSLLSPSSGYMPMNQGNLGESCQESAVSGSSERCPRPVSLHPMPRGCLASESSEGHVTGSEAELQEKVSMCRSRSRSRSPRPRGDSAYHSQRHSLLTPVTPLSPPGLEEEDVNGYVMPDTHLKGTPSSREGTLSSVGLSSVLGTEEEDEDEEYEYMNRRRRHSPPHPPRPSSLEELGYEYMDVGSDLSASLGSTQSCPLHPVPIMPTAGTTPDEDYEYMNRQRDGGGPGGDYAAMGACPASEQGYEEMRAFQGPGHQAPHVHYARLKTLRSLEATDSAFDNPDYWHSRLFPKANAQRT

Ki [1]: 1 nM
Molecule: NRG1^EGF (from UniProt Q02297 177-244) (ligand)

Ki [2]: 9 nM
B1: NRG3^EGF.Fc (Fc fusion)
chain: {gD epitope tag}-ERSEHFKPCRDKDLAYCLNDGECFVIETLTGSHKHCRCKEGYQGVRCDQFLPKTDSILSDP-{Fc (human IgG1)}
modifications: not fully specified
notes: Secreted from CHO cells, purified on protein A; MW 90 kDa; also called NRG3-EGF-Fc fusion protein; not shown: Fc portion of human IgG1
binding result [3]: no binding (tested: 5 µg in a volume of 0.25 ml)
binding result [4]: no binding (tested: 5 µg in a volume of 0.25 ml)
